Laboratory results from article doi:10.1101/2020.09.30.320564.

T1: La-module (La+RRM) (human, UniProt Q9BRS8 81-298)
T1 sequence: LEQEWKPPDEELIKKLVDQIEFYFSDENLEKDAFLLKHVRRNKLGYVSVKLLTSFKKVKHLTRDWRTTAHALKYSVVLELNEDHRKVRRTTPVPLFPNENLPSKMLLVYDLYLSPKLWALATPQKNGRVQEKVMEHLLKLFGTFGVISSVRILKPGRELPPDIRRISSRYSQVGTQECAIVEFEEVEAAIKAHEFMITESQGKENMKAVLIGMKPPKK

T2: RRM domain (human, UniProt Q9BRS8 183-298)
T2 sequence: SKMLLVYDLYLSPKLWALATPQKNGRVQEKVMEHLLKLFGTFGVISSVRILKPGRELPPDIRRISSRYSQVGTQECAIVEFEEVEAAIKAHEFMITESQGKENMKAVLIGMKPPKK

T3: La-module R121A (human, UniProt Q9BRS8 81-298, R121A)
T3 sequence: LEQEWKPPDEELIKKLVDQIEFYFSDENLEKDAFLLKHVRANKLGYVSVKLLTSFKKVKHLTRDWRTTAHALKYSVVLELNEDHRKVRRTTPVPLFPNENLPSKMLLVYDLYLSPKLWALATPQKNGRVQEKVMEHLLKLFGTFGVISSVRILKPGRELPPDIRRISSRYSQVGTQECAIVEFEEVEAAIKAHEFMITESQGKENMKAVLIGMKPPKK

T4: La-module N122A (human, UniProt Q9BRS8 81-298, N122A)
T4 sequence: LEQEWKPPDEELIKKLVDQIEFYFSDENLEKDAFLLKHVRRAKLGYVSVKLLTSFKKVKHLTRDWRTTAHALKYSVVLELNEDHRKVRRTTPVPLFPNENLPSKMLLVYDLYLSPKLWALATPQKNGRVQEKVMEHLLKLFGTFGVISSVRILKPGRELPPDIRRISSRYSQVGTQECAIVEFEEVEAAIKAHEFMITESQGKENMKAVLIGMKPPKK

T5: La-module K123A (human, UniProt Q9BRS8 81-298, K123A)
T5 sequence: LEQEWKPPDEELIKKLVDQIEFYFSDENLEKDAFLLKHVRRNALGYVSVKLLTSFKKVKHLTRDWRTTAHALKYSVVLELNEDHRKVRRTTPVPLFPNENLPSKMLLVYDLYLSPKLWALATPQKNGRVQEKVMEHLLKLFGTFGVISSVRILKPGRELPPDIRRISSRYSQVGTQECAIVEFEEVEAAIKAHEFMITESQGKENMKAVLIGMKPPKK


How the values were obtained:
La-module (La+RRM) [1] = target: T1, La-module (La+RRM); experiment: EMSA
La-domain = La-domain (human, UniProt Q9BRS8 81-182); experiment: EMSA
RRM domain = target: T2, RRM domain; experiment: EMSA
La-module R121A = target: T3, La-module R121A; experiment: EMSA
La-module N122A = target: T4, La-module N122A; experiment: EMSA
La-module K123A = target: T5, La-module K123A; experiment: EMSA
La-module (La+RRM) [2] = target: T1, La-module (La+RRM); experiment: fluorescence polarization

| Binder | binding result (La-module (La+RRM) [1]) | binding result (La-domain) | binding result (RRM domain) | binding result (La-module R121A) | binding result (La-module N122A) | binding result (La-module K123A) | binding result (La-module (La+RRM) [2]) |
| --- | --- | --- | --- | --- | --- | --- | --- |
| CCACAAAGAGUCUACAUGUCUAGGGUCUAGACAUGUUCAGCUUUGUGG (structured_RNA) [α1(I) 5'SL] | binds | binds |  |  |  |  |  |
| CACAAGGAGUCUGCAUGUCUAAGUGCUAGACAUGCUCAGCUUUGUG (structured_RNA) [α2(I) 5'SL] |  |  | no binding | binds | binds | binds | binds |
